Results as given in publication PMC11417369, “DNA sequence and chromatin differentiate sequence-specific transcription factor binding in the human malaria parasite Plasmodium falciparum”.
Where a chain is given by its changes, count along the chain named.

B1: GTGCAC_site10767 (dsDNA)
DNA 1: TGTTTTATTTAGAAGGTGCACATTAATATTAAATAA
DNA 2: TTATTTAATATTAATGTGCACCTTCTAAATAAAACA
B2: GTGCAC_site10477 (dsDNA)
DNA 1: AAATATTTCTGCAAGGTGCACTTTATAAATCTTTGA
DNA 2: TCAAAGATTTATAAAGTGCACCTTGCAGAAATATTT
B3: GTGCAC_site9855 (dsDNA)
DNA 1: TTTATTTTCCAAAGGGTGCACATAGTTAAAACGATA
DNA 2: TATCGTTTTAACTATGTGCACCCTTTGGAAAATAAA
B4: GTGCAC_site10157 (dsDNA)
DNA 1: B3 DNA 1 with A28G
DNA 2: B3 DNA 2 with T9C
B5: GTGCAC_site10337 (dsDNA)
DNA 1: GGGATATTTTAAAGGGTGCATATTATTAAAATAATG
DNA 2: CATTATTTTAATAATATGCACCCTTTAAAATATCCC
B6: GTGCAC_site9660 (dsDNA)
DNA 1: CTTTTTTTTTTGGGGGTGCATGCAAGACATATATTT
DNA 2: AAATATATGTCTTGCATGCACCCCCAAAAAAAAAAG
B7: GTGCAC_site9401 (dsDNA)
DNA 1: AAAAAAAAAAAAAAGGTGCATACTTTGAATTAATAT
DNA 2: ATATTAATTCAAAGTATGCACCTTTTTTTTTTTTTT
B8: GTGCAC_site10518 (dsDNA)
DNA 1: ATATATTTCAAAGGGGTGCAGGCATATTTAAGCAAA
DNA 2: TTTGCTTAAATATGCCTGCACCCCTTTGAAATATAT
B9: GTGCAC_site9928 (dsDNA)
DNA 1: TTAACCGGTTTATGGGTGCACATTCTTCTTAAATAA
DNA 2: TTATTTAAGAAGAATGTGCACCCATAAACCGGTTAA
B10: GTGCAC_site9950 (dsDNA)
DNA 1: AAAAAAAAAAAAATGGTGCAACTTTGTTAAAGGAAA
DNA 2: TTTCCTTTAACAAAGTTGCACCATTTTTTTTTTTTT
B11: GTGCAC_site10577 (dsDNA)
DNA 1: TTTTTTTTCTATGTGGTGCACATTATTTTTTTTTTT
DNA 2: AAAAAAAAAAATAATGTGCACCACATAGAAAAAAAA
B12: GTGCAC_site10727 (dsDNA)
DNA 1: ATAGAAGGCAACTTGGTGCACAAAAAAAAAAATAAT
DNA 2: ATTATTTTTTTTTTTGTGCACCAAGTTGCCTTCTAT
B13: GTGCAC_site9899 (dsDNA)
DNA 1: CTTGTGCTTTATAGGGTGCACATTTTGTTTTGGTAA
DNA 2: TTACCAAAACAAAATGTGCACCCTATAAAGCACAAG
B14: GTGCAC_site10229 (dsDNA)
DNA 1: CACATTAATTTTTGGGTGCACTTGGGAAATTTTGGT
DNA 2: ACCAAAATTTCCCAAGTGCACCCAAAAATTAATGTG
B15: GTGCAC_site9733 (dsDNA)
DNA 1: TAAAAATTAAAAAGGGTGCAAAAAAAAAAAAAAAAA
DNA 2: TTTTTTTTTTTTTTTTTGCACCCTTTTTAATTTTTA
B16: GTGCAC_site10574 (dsDNA)
DNA 1: AATTAATGGCTAAAGGTGCACAATATATATATTACA
DNA 2: TGTAATATATATATTGTGCACCTTTAGCCATTAATT
B17: GTGCAC_site9943 (dsDNA)
DNA 1: B16 DNA 1 with C10T, T26C
DNA 2: B16 DNA 2 with A11G, G27A
B18: GTGCAC_site10453 (dsDNA)
DNA 1: TATAAGTAGATAAGGGTGCACAATATAAATATATAG
DNA 2: CTATATATTTATATTGTGCACCCTTATCTACTTATA
B19: GTGCAC_site10200 (dsDNA)
DNA 1: CTCATTTTTGTACAGGTGCACTTATCGTTACACTAT
DNA 2: ATAGTGTAACGATAAGTGCACCTGTACAAAAATGAG
B20: GTGCAC_site9650 (dsDNA)
DNA 1: CAATTTGGTGTACAGGTGCACATGCCTCACGATAAA
DNA 2: TTTATCGTGAGGCATGTGCACCTGTACACCAAATTG
B21: GTGCAC_site10674 (dsDNA)
DNA 1: AAAAAAAAAAAAAAGGTGCAAATAAATTAACCTTAT
DNA 2: ATAAGGTTAATTTATTTGCACCTTTTTTTTTTTTTT
B22: GTGCAC_site10015 (dsDNA)
DNA 1: TATAATGGTTCTGGTGTGCACCATGACAGAATCAAG
DNA 2: CTTGATTCTGTCATGGTGCACACCAGAACCATTATA
B23: GTGCAC_site9600 (dsDNA)
DNA 1: AACCTTACACAAGGGGTGCAATATTATTTCGATAAA
DNA 2: TTTATCGAAATAATATTGCACCCCTTGTGTAAGGTT
B24: GTGCAC_site10597 (dsDNA)
DNA 1: TGAACTCAACAAAGGGTGCATAACAAAAATAGACGT
DNA 2: ACGTCTATTTTTGTTATGCACCCTTTGTTGAGTTCA
B25: GTGCAC_site9881 (dsDNA)
DNA 1: TCCGCATGTACATGGGTGCACATAACACCCATTTAA
DNA 2: TTAAATGGGTGTTATGTGCACCCATGTACATGCGGA
B26: GTGCAC_site10198 (dsDNA)
DNA 1: TTTTTAACGTATAAGGTGCACTGTATATGGTACTCA
DNA 2: TGAGTACCATATACAGTGCACCTTATACGTTAAAAA
B27: GTGCAC_site10223 (dsDNA)
DNA 1: TTAATTATGGACAGGGTGCACATGAATAATAATACC
DNA 2: GGTATTATTATTCATGTGCACCCTGTCCATAATTAA
B28: GTGCAC_site9754 (dsDNA)
DNA 1: ATATAATATTTTAGAGTGCACCGATAACAATAAATA
DNA 2: TATTTATTGTTATCGGTGCACTCTAAAATATTATAT
B29: GTGCAC_site9513 (dsDNA)
DNA 1: TATATATGTATATGTGTGCACCTTATTTCTTTTATT
DNA 2: AATAAAAGAAATAAGGTGCACACATATACATATATA
B30: GTGCAC_site10495 (dsDNA)
DNA 1: ATATATATAATATAGGTGCACTACTTATTTAAAAAA
DNA 2: TTTTTTAAATAAGTAGTGCACCTATATTATATATAT
B31: GTGCAC_site10641 (dsDNA)
DNA 1: ATATAATAACAAAAGGTGCGCATTAAGACAAAAAAA
DNA 2: TTTTTTTGTCTTAATGCGCACCTTTTGTTATTATAT
B32: GTGCAC_site10530 (dsDNA)
DNA 1: ATTAATAATCGAAAGGTGCACTTTGATTTGATAACA
DNA 2: TGTTATCAAATCAAAGTGCACCTTTCGATTATTAAT
B33: GTGCAC_site10264 (dsDNA)
DNA 1: TTATTTATTTATTGGGTGCACTTGATTTAAATATGC
DNA 2: GCATATTTAAATCAAGTGCACCCAATAAATAAATAA
B34: GTGCAC_site10519 (dsDNA)
DNA 1: CATGCCTTTAAAAAGGTGCAAACATTTTCACAAACA
DNA 2: TGTTTGTGAAAATGTTTGCACCTTTTTAAAGGCATG
B35: GTGCAC_site9617 (dsDNA)
DNA 1: TTTTTTTTTTTTTGTGTGCACCTTATTTTTTTGTAT
DNA 2: ATACAAAAAAATAAGGTGCACACAAAAAAAAAAAAA
B36: GTGCAC_site9853 (dsDNA)
DNA 1: ACTATTTAATATAGGGTGCAACTTTTTCAAGTAAAT
DNA 2: ATTTACTTGAAAAAGTTGCACCCTATATTAAATAGT
B37: GTGCAC_site10047 (dsDNA)
DNA 1: TATAATTTTTACTGGGTGCACTCGATATTTTAAATA
DNA 2: TATTTAAAATATCGAGTGCACCCAGTAAAAATTATA
B38: GTGCAC_site9987 (dsDNA)
DNA 1: ATATCTTATAATACGGTGCACTTGACATGAACAACT
DNA 2: AGTTGTTCATGTCAAGTGCACCGTATTATAAGATAT
B39: GTGCAC_site10679 (dsDNA)
DNA 1: AGCATATTATTTTAGGTGCACTTGAAATGTGTTAAC
DNA 2: GTTAACACATTTCAAGTGCACCTAAAATAATATGCT
B40: GTGCAC_site10010 (dsDNA)
DNA 1: AACCATTGGGAAAGGGTGCACATATATATATATATA
DNA 2: TATATATATATATATGTGCACCCTTTCCCAATGGTT
B41: GTGCAC_site9525 (dsDNA)
DNA 1: CTGCGTTTAATATGCGTGCACCTTGGTTTTATATCT
DNA 2: AGATATAAAACCAAGGTGCACGCATATTAAACGCAG
B42: GTGCAC_site9503 (dsDNA)
DNA 1: ATCTATTTGTAAAGGGTGCGCATATCAATAAAAAAT
DNA 2: ATTTTTTATTGATATGCGCACCCTTTACAAATAGAT
B43: GTGCAC_site9895 (dsDNA)
DNA 1: ATTGAATTCCAACTGGTGCACCAGTAAGATTGAAAA
DNA 2: TTTTCAATCTTACTGGTGCACCAGTTGGAATTCAAT
B44: GTGCAC_site10263 (dsDNA)
DNA 1: TTTAATTATTAAATGGTGCACTTGAAATATAAAAAT
DNA 2: ATTTTTATATTTCAAGTGCACCATTTAATAATTAAA

Biological target: T1, SIP2 D1 (Plasmodium falciparum, UniProt C6KSN9 177-235)
T1 sequence: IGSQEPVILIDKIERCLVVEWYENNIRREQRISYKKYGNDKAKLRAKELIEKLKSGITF
Assay: gcPBM; about 25 ug protein; PBS, 1% milk, 0.2 mg/ml BSA, salmon testes DNA, 0.03% Triton X-100
Settings: tags: N-terminal GST (pGEX-4T-1), kept; label: surface-attached array probe

| Binder | binding signal |
| --- | --- |
| B1 | 11.8 ln median PBM intensity, better of two orientations |
| B2 | 12.1 ln median PBM intensity, better of two orientations |
| B3 | 11.9 ln median PBM intensity, better of two orientations |
| B4 | 11.9 ln median PBM intensity, better of two orientations |
| B5 | 11.8 ln median PBM intensity, better of two orientations |
| B6 | 11.5 ln median PBM intensity, better of two orientations |
| B7 | 11.7 ln median PBM intensity, better of two orientations |
| B8 | 11.6 ln median PBM intensity, better of two orientations |
| B9 | 11.9 ln median PBM intensity, better of two orientations |
| B10 | 11.6 ln median PBM intensity, better of two orientations |
| B11 | 11.4 ln median PBM intensity, better of two orientations |
| B12 | 11.4 ln median PBM intensity, better of two orientations |
| B13 | 11.9 ln median PBM intensity, better of two orientations |
| B14 | 11.6 ln median PBM intensity, better of two orientations |
| B15 | 11.6 ln median PBM intensity, better of two orientations |
| B16 | 11.7 ln median PBM intensity, better of two orientations |
| B17 | 11.6 ln median PBM intensity, better of two orientations |
| B18 | 12.1 ln median PBM intensity, better of two orientations |
| B19 | 11.5 ln median PBM intensity, better of two orientations |
| B20 | 11.3 ln median PBM intensity, better of two orientations |
| B21 | 11.4 ln median PBM intensity, better of two orientations |
| B22 | 11.4 ln median PBM intensity, better of two orientations |

| Binder | binding signal |
| --- | --- |
| B23 | 11.5 ln median PBM intensity, better of two orientations |
| B24 | 11.6 ln median PBM intensity, better of two orientations |
| B25 | 11.6 ln median PBM intensity, better of two orientations |
| B26 | 11.5 ln median PBM intensity, better of two orientations |
| B27 | 11.9 ln median PBM intensity, better of two orientations |
| B28 | 11.4 ln median PBM intensity, better of two orientations |
| B29 | 11.7 ln median PBM intensity, better of two orientations |
| B30 | 11.7 ln median PBM intensity, better of two orientations |
| B31 | 11.5 ln median PBM intensity, better of two orientations |
| B32 | 12.2 ln median PBM intensity, better of two orientations |
| B33 | 11.8 ln median PBM intensity, better of two orientations |
| B34 | 11.4 ln median PBM intensity, better of two orientations |
| B35 | 11.8 ln median PBM intensity, better of two orientations |
| B36 | 11.5 ln median PBM intensity, better of two orientations |
| B37 | 12.2 ln median PBM intensity, better of two orientations |
| B38 | 11.9 ln median PBM intensity, better of two orientations |
| B39 | 11.5 ln median PBM intensity, better of two orientations |
| B40 | 12.2 ln median PBM intensity, better of two orientations |
| B41 | 11.3 ln median PBM intensity, better of two orientations |
| B42 | 11.6 ln median PBM intensity, better of two orientations |
| B43 | 11.6 ln median PBM intensity, better of two orientations |
| B44 | 11.8 ln median PBM intensity, better of two orientations |
